Data as given in the nanobody polyreactivity screen of Harvey et al. (2022).

Experiment: yeast display, Sf9 membrane polyspecificity reagent, FACS + sequencing; frameworks hold sequencing errors
How it was run: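 In a synthetic yeast display library (Saccharomyces cerevisiae BJ5465), nanobody expression was induced with galactose for 36–48 hours. FACS gates were set low and high (top ~1%) using anti-HA fluorescence for expression and streptavidin fluorescence for binding of the Sf9 membrane reagent. Each polyreactivity label is drawn from the gate of origin.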

Sequence	polyreactivity (PSR sort gate)
QVQLVESGGGLVQAGGSLRLSCAASGRTFFSNAMGWYRQAPGKERELVAAISNGDNTYYADSVKGRFTISRDNAKNTVYLQMNSLKPEDTAVYYCAKDYRWVWRKYGYWGQGTQVTVSS	low polyreactivity
QVQLVESGGGLVQAGGSLRLSCAASGLTFRYYAMVWYRQAPGKERELVATITRAGRTNYADSVKGRFTISRDNAKNTVYLQMNSLKPEDTAVYYCATKRVLTGFDSWGQGTQVTVSS	high polyreactivity
QVQLVESGGGLVQAGGSLRLTCAASGRTFNVNVMGWSRQAPGKERELVAAIRYTGGSTYADSVKGRFTISRDNAKNTVYLQMNSLKPEDTAVYYCNADTFFPFDHGMDYWGQGTQVTVSS	low polyreactivity
QVQLVESGGGLVQAGGSLRLSCAASGRTFPYYAMGWYRQATGKERELVAAIRSSGDRTYYADSVKGRFTISRDNAKNTVYLQMNSLKPEDTAVYYCNKVFLRSRRYYWGQGTQVTVSS	high polyreactivity
QVQLVESGGGLVQAGGSLRLSCAASGFIFGAYAMGWYRQAPGKERELVAAITKSGGRTYYADSVKGRFTISRDNAKNTVYLQMNSLKPEDTAVYYCAAVTRYPGEYDYWGQGTQVTVSS	high polyreactivity
QVQLVESGGGLVQAGGSLRLSCAASGRTFDYNAMGWYRPAPGKERELVAAISRSGGSTYYADSVKGRFTISRDNAKNTVYLQMNRLKPEDTAVYYCAADNYYLFALYEYGYWGQGTQVTVSS	high polyreactivity
QVHLVESGGGLVQAGGSLRLSCAASGFIFKFDAMGWYRQAPGKEREMVAAITASSGRTNYADSVKGRFTISRDNAKNTVYLHMNSLKPEDTAVYFCAARRWPKYSAYRYDYWGQGTQVTVSS	high polyreactivity
QVQLVESGGGLVQAGGSLRLSCAASGGTFYTYAMGWYRQAPGKERELVAAISRSGGRTYYADSVKGRFTISRDNAKNTVYLQMNSLKPEDTAVYYCAAVRIARAVQDYDYWGQGTQVTVSS	high polyreactivity
QVQLVESGGGLVQAGGSLRLSCAASGSTFSGYMGWNRQAPGKERELVAAITSGGSTNYADSVKGRFTISRDNAENTVYLQMNSLKPEDTAVYYCAAQGRWLGWRGYDYWGLGTQVTVSS	high polyreactivity
QVQLEESGAGLVQAGGSLRLCCAASGFTIGYNVMGWYRQAPGKERELVATISWNGARTYYADSVKGRFTISRDNAKNTVYLQMNSLKPEDTAVYYCAARRYYRGEYDYWGQGTKVTVSS	low polyreactivity
QVQLVDSGGGLVQAGGSLRLSCAASGLTIYAYAMGWYRQAPGKERELVAAISSGGSTSYADSVKGRFTISRDNAKNTVYLQMNSLKPEDTAVYYCAARPKSSRFFGWGYNYWGQGTQVTVSS	high polyreactivity
QVQLVESGGGLVQAGGRLRLSCAASGRIFDANVMGWYRQAPGKERELVAAISSGGRTKYADSVKGRFTISRDNAKNNVYLQMNSLKPEDTAVYYCAKKHSPLYDYWGQGTQVTVSS	low polyreactivity
QVQLVESGGGLVQAGGSLRLICAGSGRIFYRYPMGWYRQAPGKERELVAAITVRGGSTYYADSVKGRFTISRDNAKNTVYVQRHSLKPEDTALYYCATGLGVLYDYWYEVEFDYWGQGTQVSVSS	low polyreactivity
QVQLVESGGGLVQAGGSLRLSGDASGSIFVWYDMGWYRQAPGKERELVATISLSGVSTYYADSVKGRFTISRDNAKKTVYLQMNSLKPEDNAVYYCAADFVEQGEDDYCGQGTQVTVSS	low polyreactivity
QVQLVESGGGLVQAGGSLRLSCAPSGSIFPDYAMGWYRHAPGKQRELVAAIRSGSRTYYADSVKGRFTISRDNAKITVYLQMNSLNPEDTAVYYCATTYGTPRYDYWGQGTQVTVSS	high polyreactivity
QVQLVESVGGLVKAGGSLRLSCAASGFIFYRYTMGWYRQDPGKERELVAGISSRGTRTYYADSVKGRFTISRDNAKNTVYLQMNSLKPEDTAVYYCAAVLTQPKKVNYWGQGTQVTVSS	high polyreactivity
QVQLVESCGGLVQAGGILRLSCADYGSIFYYNAMGWYRQAPGKERQLVAAITRSGSTNYAESVKLRFTISRDNAKNTVYLQMNSLKPEDTAVYYCAAPWRGSVFRYYSWGQGTQVTVSS	low polyreactivity
QVQLVESGGGLDQAGGSLRLSCAASGSTFVVNAMGWYRQAPGKERELVAAIRNSGSTTYADSVKGRFTISRDNAKYTVYLQMNSLKPEDTAVYYCATDFSATVTAVQINPYDYWGQGTQVTVSS	low polyreactivity
QVQLVESGGGLVQAGGSLRLSCAASGFTFAGNTMGWYRQAPGKERELVAAINSGGSTHYADSVKGRFTISRDNAKNTVYLQMNSLKPEDTAVYYCADYLTRYGAYYWGQGTQVTVSS	high polyreactivity
QVQLVESGGGLVQAGGSLRLSCAASGSIFAGYAMGWYRQAPGKDRELVAAINWTGDSTYYADSVKGRFTNSRDNAKNTVYLQMNSLKQEDTAVYYCAAIRRQKGLWDYYYWGQGTQVTVSS	low polyreactivity
QVQLVESRGGLVQAGGSLRLSCAASVSIVGIYVMGRYRQAPGKERELVAGISTRGGSTYYADSVKGRFTIARDNAKNTVYLQMNSLKPEDTAVYYCAVRAWDPYTGKSDYWGQGTQVTVSS	low polyreactivity
QVQLVESGGGLVQAGGSLRLSCAASGSIFIAYGMGWYRQEPGKERELVAAITVSGGNTYYADSVKGRFTISRDNAKNTVYLQMNSLKPEDTAVYYCAADYWYYYGKVLYDYWGQGTQVTVSS	low polyreactivity

Sequence	polyreactivity (PSR sort gate)
QFHLVESGGGLVQAGGSLRLTCAASGRTFAYYAMGWYRQAPGKEREMVAGITRNGGSTYYADSVKGRFTISRDNAKNTVYLQMNSLKPEDTAVYYCAAGFTTRRGEYNYWGKGTQVTVSS	high polyreactivity
QVHLVESGGGLVQAGGSLRLSCAASGSTFSSYAMGWYRQAPGKERELVAAINWSGTRTYYADSVKGRFTISRDNAKNTVYLQMNSLKPEDTAVYYCAAPGDGETADYDYWGQGTQVTVSS	low polyreactivity
QVQLVESGGGFDQAGGSLRLSCAACGSIFWSNAMGWYRQAPGKERELVAAISSGGSTYADSVKGRLTISRDNAKNTVYLQMNSLKPEDNAVYYCNADVLYGDCYRGGYWGQGTQVTVSS	low polyreactivity
QVQLVESGGGLVQAGGSLRLSCAASGSTFSRYTMGWYRQAPGKERELVAAITWSGGRTYYADSVKGRFTISRDNAKNTVYLQMNSLKPEDTAVSYCNVDSSRYSGYDYWGQGTQVTVSS	high polyreactivity
QVQLVESGGGLVQAGGSLLLSCAASGRTFAPYAMGWYRQAPGKERELVAAISSGGGNTYYADSVKGRFTISRDNAKITVYLHMNSLKPEDTAVYYCNAAQRRGGLGYSGQGTQVTVSS	high polyreactivity
QVQLVESGGGLVQAGGSLRLSCAASGFTFNRYAMGWYRQAPGKERELVATITSGGNTYYADSVKGRFTISRDNAKNTVYLQMNSLKPEDTAVYYCNKRGWYSVYRRDFWGQGTQVTVSS	high polyreactivity
QVQLVESGGGLVQAGGSLRLSCAASGSIFYNAMGGYRQAPGKERELVAGISSGTSTYYADSVKGRFTISRDNAKNTVYLLMNSLKPEDTEVYYCATRWSYRYGYWGQGTQVTVSS	high polyreactivity
QVQLVESGGGLVQAGGSLRLSCAASGSIFYRYAMGWYSQAPGKERELVAAINNGGGRTYADSVKGRCTISRDNAKNTVYLQMNSLKPEDTAVYYCAARYYRDYRWYTYAYDYWGQGTQVNVSS	high polyreactivity
QVQLVESRGGLVQAARSLRLSFAASGSIFSSNAMGWYRQAPGKERELVAAITSVGSTTYADSVKGRFTISRDNAKNTVYLQMNSLKPEDTAVYYFAADPVYRYYHGWTYVDYVYWGQGTQVTVSS	low polyreactivity
QVQLVESGGGLVQAGGSLRISCAASGSIFRINAMGWYRQAHGKEMELVAAITASGDRTYYADSVKGRFTISRDNAKNTVYLQMNSLKPEDTAVFYCAVDSYYPASSLVAFPYAPRYDYWGQGTQVTVSS	low polyreactivity
QVQLVESGGGLVQAGGSLRLSCAASGFTFKYYAMGWYRQAPGKERELVAVISSSGGSTYYADSVKGRFTISRDNAKNTVYLQMNSLKPEDTAVYYCAAELVYRYYVKDADDYWGQGTQVTVSS	low polyreactivity
QVQLVESGGGLVQAGGRLRLSCAASGRTIDHYAMGWYRQAPGKERELVAAISTTGGSTYYADSVKGRFTISRDNAKNTVYLQMNSLKPEDTAVYYCAARGLRTGGYWGQGTQVTVSS	high polyreactivity
QVQLVESGGGLVQAGGSLRLSCAASGFTFWKYAMGWYRQAPGKERELVATITSSGDNTYYADSVKGRFTISRDNAKNNVYLQMNSLKPEDTAVYYCAADNGYHYNFDYWGQGTQVTVSS	low polyreactivity
QVQLVESGGGLVQAGGSLRLSCAASGSIFGGYAMGWYRQAPGKERELVATISYSGDSTYYADSVKGRFTISRDHAKNTVYLQMNSLKPEDTAVDYCATESNGSPYKGDYWGQGTQVTVSS	low polyreactivity
QVQLVESGGGLVQAGGSLRLSCAASGSTFRTYAKGWYRQAPGKERELVASITRRGGRTYYADSVKGRFTISRDNAKNTVYLQMYSLKPEDTAVYYCAAADQQYDYWGQGTQVTVTS	high polyreactivity
QVQLVESGGGLVQAGGSLRLSCAASGFILNFYAMGWYRQAPGKERELVAAISTSGGSTYYADSVKGRFTISRDNAKNTVYLQMNSLKPEDTAGYYCAARRARTYHTSSGYRGYYYWGQGTQVTVSS	high polyreactivity
QVQLVESGGGLVQAGGSLRLSCAASGSIVNYYAMGWYRQAPGKERELVAAITWSGGRTYSADSVKGRFTSSRDNAKNTVYLQMNSLKPEDTAVYYCATAPVRIRDILFSPRMDYWGLGTQVTVSS	low polyreactivity
QVQLVESGGGLVQAGGSLRLSCAASGLTCGKYAMGWYRQAPGKERELVAAINSSGGSTYYADSVKGRFTISRDNAKNTVYLQMNSLKPEDTAVYYCAVAVYRLIYFEYNYWGQGTQVTVSS	low polyreactivity
QVQLVESGGGLVQAGGSLRLSCAASGSTFQSYAMGWYRQAPGKERELVAAISARGGTTYYADSVKGRFTISRDNAKNTVYLQMNSLKPEDTAVYYCAVDRAFRAQNYHEYDYWGQGTQVTVSS	low polyreactivity
QVQLVESGGGLVQAGGSLRLSCAASGITFTYNAMGWYRPAPGKERELVAAITWSGGSTFYADSVKGRFTISRDNAKNTVYLQMNSLKPEDTAVYYCARDTELYDRWLDYWGQGTQVTVSS	low polyreactivity
QVQLVESGGGLVQAGGSLRLSCAASGITYWKYAMGWYRQAPGKERELVAAISKSGGSTYYADSVKGRFTISRDNAKNTVYLQMNSLKPEDTAVYYCAAVPGPASKYGYWGQGTQVTVSS	high polyreactivity
